# B1: Connector enhancer of kinase suppressor of ras 2 (Homo sapiens), Q8WXI2 (parent)
# chain: MALIMEPVSKWSPSQVVDWMKGLDDCLQQYIKNFEREKISGDQLLRITHQELEDLGVSRIGHQELILEAVDLLCALNYGLETENLKTLSHKLNASAKNLQNFITGRRRSGHYDGRTSRKLPNDFLTSVVDLIGAAKSLLAWLDRSPFAAVTDYSVTRNNVIQLCLELTTIVQQDCTVYETENKILHVCKTLSGVCDHIISLSSDPLVSQSAHLEVIQLANIKPSEGLGMYIKSTYDGLHVITGTTENSPADRCKKIHAGDEVIQVNHQTVVGWQLKNLVNALREDPSGVILTLKKRPQSMLTSAPALLKNMRWKPLALQPLIPRSPTSSVATPSSTISTPTKRDSSALQDLYIPPPPAEPYIPRDEKGNLPCEDLRGHMVGKPVHKGSESPNSFLDQEYRKRFNIVEEDTVLYCYEYEKGRSSSQGRRESTPTYGKLRPISMPVEYNWVGDYEDPNKMKRDSRRENSLLRYMSNEKIAQEEYMFQRNSKKDTGKKSKKKGDKSNSPTHYSLLPSLQMDALRQDIMGTPVPETTLYHTFQQSSLQHKSKKKNKGPIAGKSKRRISCKDLGRGDCEGWLWKKKDAKSYFSQKWKKYWFVLKDASLYWYINEEDEKAEGFISLPEFKIDRASECRKKYAFKACHPKIKSFYFAAEHLDDMNRWLNRINMLTAGYAERERIKQEQDYWSESDKEEADTPSTPKQDSPPPPYDTYPRPPSMSCASPYVEAKHSRLSSTETSQSQSSHEEFRQEVTGSSAVSPIRKTASQRRSWQDLIETPLTSSGLHYLQTLPLEDSVFSDSAAISPEHRRQSTLPTQKCHLQDHYGPYPLAESERMQVLNGNGGKPRSFTLPRDSGFNHCCLNAPVSACDPQDDVQPPEVEEEEEEEEEEGEAAGENIGEKSESREEKLGDSLQDLYRALEQASLSPLGEHRISTKMEYKLSFIKRCNDPVMNEKLHRLRILKSTLKAREGEVAIIDKVLDNPDLTSKEFQQWKQMYLDLFLDICQNTTSNDPLSISSEVDVITSSLAHTHSYIETHV
# partner: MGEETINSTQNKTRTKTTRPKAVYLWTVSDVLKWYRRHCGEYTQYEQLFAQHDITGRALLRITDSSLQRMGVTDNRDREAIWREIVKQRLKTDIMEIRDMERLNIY
# B2: Protein aveugle (Drosophila melanogaster (Fruit fly)), Q8ML92 (parent)
# chain: B1 partner
# Variants of: B1
# Settings: with ave_drome ave, Q8ML92
row,Variant,effect of a mutation on the interaction
1,I60A,decreasing interaction
2,E68R;D71R,disrupting interaction
3,D71R,decreasing interaction

# Variants of: B2
# Settings: with cnkr2_human CNKSR2, Q8WXI2
row,Variant,effect of a mutation on the interaction
1,R57A;R61A,decreasing interaction
2,R57E;R61E,disrupting interaction
3,R61E,decreasing interaction
